Laboratory results: patent US20200353030A1 (BAR ILAN UNIVERSITY, published 2020)

B1: Fab antibody fragment AbD32836.1 (Fab, V domains shown)
VH: EVQLVESGGGLVKPGGSLRLSCAASGFTFSSYALSWVRQAPGKGLEWVGHIKSKTDGGATEYAAPVKGRFTISRDDSKNTLYLQMNSLKTEDTAVYYCARSYSEYIPLYAFAVWGQGTLVTVSS
VL: DIVLTQPPSVSGAPGQRVTISCSGSSSNIGSKYVSWYQQLPGTAPKLLIYYTSQRPSGVPDRFSGSKSGTSASLAITGLQAEDEADYYCYAWDSTSTSTVFGGGTKLTVLG
notes: HuCAL phage display Fab from BioRad AbD Serotec, raised against hRobo2 D4-5; also called Fab AbD32836.1; Fab #AbD32836.1
B2: hRobo2 receptor ectodomain D4-D5 N426M (residues 311-509 of human Robo2) (receptor)
chain: RAPPQFVVRPRDQIVAQGRTVTFPCETKGNPQPAVFWQKEGSQNLLFPNQPQQPNSRCSVSPTGDLTITNIQRSDAGYYICQALTVAGSILAKAQLEVTDVLTDRPPPIILQGPAMQTLAVDGTALLKCKATGDPLPVISWLKEGFTFPGRDPRATIQEQGTLQIKNLRISDTGTYTCVATSSSGETSWSAVLDVTESG
modifications: additional 655 Da glycosylation found by mass spectroscopy (site not stated)
notes: also called WT hRobo2 D4-5; hRobo2 D4-D5 fragment; not shown: N-terminal FLAG tag of the modified pFastBac (pK503-9) vector; C-terminal hexahistidine tag

Key:
[1] = target: Robo2 of mouse dorsal root ganglion explants (mouse) (UniProt Q7TPD3); assay: cell-based or functional assay
Robo2 of mouse dorsal root ganglion explants (mouse), sequence (Q7TPD3 22-1470): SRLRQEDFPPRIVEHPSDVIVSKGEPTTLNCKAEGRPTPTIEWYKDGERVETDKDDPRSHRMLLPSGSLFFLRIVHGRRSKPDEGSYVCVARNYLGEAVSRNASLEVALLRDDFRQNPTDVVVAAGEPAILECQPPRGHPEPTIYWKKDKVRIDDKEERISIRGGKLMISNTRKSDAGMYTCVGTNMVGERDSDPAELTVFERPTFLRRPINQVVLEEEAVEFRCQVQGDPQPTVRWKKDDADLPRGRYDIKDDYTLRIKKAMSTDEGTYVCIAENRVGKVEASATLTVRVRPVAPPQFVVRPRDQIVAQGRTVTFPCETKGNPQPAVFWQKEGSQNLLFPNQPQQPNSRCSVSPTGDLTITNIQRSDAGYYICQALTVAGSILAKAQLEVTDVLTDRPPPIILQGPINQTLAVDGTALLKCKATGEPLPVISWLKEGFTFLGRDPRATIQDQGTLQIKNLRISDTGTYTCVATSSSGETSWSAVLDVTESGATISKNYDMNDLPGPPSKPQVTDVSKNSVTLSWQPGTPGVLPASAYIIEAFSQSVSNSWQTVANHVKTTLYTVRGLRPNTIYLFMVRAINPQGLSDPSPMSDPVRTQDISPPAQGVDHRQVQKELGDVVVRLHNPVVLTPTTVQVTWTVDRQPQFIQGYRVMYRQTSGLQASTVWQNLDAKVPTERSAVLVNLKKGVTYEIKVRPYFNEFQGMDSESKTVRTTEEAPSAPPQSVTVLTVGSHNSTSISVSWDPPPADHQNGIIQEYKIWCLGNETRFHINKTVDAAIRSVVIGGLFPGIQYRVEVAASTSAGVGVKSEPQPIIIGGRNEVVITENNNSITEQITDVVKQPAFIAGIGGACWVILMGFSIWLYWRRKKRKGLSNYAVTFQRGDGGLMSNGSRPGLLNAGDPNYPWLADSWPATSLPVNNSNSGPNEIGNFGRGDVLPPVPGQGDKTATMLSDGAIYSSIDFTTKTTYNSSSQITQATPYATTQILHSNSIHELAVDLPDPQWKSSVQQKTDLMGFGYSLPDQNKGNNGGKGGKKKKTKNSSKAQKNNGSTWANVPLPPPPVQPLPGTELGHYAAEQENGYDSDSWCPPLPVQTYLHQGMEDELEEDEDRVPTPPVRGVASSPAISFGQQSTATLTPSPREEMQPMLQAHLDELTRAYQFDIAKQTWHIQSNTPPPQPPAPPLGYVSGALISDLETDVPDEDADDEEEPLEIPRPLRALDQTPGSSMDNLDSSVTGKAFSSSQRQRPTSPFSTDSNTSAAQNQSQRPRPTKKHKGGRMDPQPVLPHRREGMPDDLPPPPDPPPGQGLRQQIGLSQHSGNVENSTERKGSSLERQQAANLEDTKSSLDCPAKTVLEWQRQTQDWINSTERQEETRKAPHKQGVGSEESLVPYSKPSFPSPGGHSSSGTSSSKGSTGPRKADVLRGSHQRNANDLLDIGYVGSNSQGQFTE

[2] = target: hRobo2 receptor ectodomain D4-D5 L394R mutant (human) (UniProt Q9HCK4); assay: sedimentation equilibrium analytical ultracentrifugation, self-association; total molecular weight of the monomer in the same row 24720 Da; the KD column of this row prints 'monomer'
[3] = target: hRobo2 receptor ectodomain D4-D5 F357R mutant (human) (UniProt Q9HCK4); assay: sedimentation equilibrium analytical ultracentrifugation, self-association; total molecular weight of the monomer in the same row 24686 Da; the KD column of this row prints 'monomer'
[4] = target: B2; assay: apparent KD; ELISA binding assay, method of the fit not stated
[5] = target: the molecule itself; assay: SE-AUC, monomer-dimer fit, homodimerization in solution (10, 20 and 30 µM)
Method: All the sedimentation equilibrium experiments with hRobo2 receptor ectodomain D4-D5 constructs were performed using an XL-I analytical ultracentrifuge (Beckman-Coulter Inc.), with a UV-visible optics detection system, using an An60Ti rotor and 12-mm double sector centerpieces. Sedimentation curves were recorded and analyzed at 280 nm while spinning at 20° C. at 20,000 rpm in 10, 12, 14, and 20 hour time points, to assure that equilibrium was reached. Three concentrations (10, 20, and 30 μM) of WT hRobo2 receptor ectodomain D4-D5 (N426M) were measured. The F357R and L394R mutants were measured and analyzed in 20 μM. The molecular weight of WT hRobo2 receptor ectodomain D4-D5 fragment (N426M) was determined by mass spectroscopy using the Orbitrap Fusion Lumos with electron transfer dissociation (ETD), with both instrument and chromatography set up especially for the analysis of intact proteins. The recombinant protein includes an N′ terminal FLAG and C′ terminal 6XHis tags. […] The sedimentation coefficient distributions were calculated using SEDFIT and SEDPHAT (Gabrielson et al., 2007; Schuck et al., 2014).
The oligomeric state of hRobo2 receptor ectodomain D4-D5 in solution was determined by sedimentation equilibrium analytical ultracentrifugation (SE-AUC) (FIGS. 8A-8C). […]

“hSlitN2 (from UniProt O94813 31-1121) (ligand)” was tested, and the growth cone collapse of DRG explants 10 min after 5 nM SlitN2, without Fab [1] was 60%.

“hRobo2 receptor ectodomain D4-D5 L394R mutant (from UniProt Q9HCK4 311-509)” showed a global distribution (Da) sedimentation equilibrium [2] of 24700 Da.

Work on “hRobo2 receptor ectodomain D4-D5 F357R mutant (from UniProt Q9HCK4 311-509)” yielded a global distribution (Da) sedimentation equilibrium [3] of 24100 Da.

B1 was tested, and the Kd [4] was 0.18 µM.

Molecule B2 has a Kd [5] of 16.9 µM.
